The data set “cryo-EM structure” deals with the molecule itself. As to the kind of experiment: cryo-EM structure.
Data set [1] concerns the molecule itself. As to the kind of experiment: cryo-EM structure; 8.6 µM GroEL + 17.1 µM GroES on the grid, 83.3 mM ATP with gold fiducials sprayed with MIU, 300 ms.

In general, stoichiometry N refers to the number of molecules, sites or subunits per partner or assembly.

B1: Cowpea chlorotic mottle virus (CCMV) coat protein (natural protein)
chain: MSTVGTGKLTRAQRRAAARKNKRNTRVVQPVIVEPIASGQGKAIKAWTGYSVSKWTASCAAAEAKVTSAITISLPNELSSERNKQLKVGRVLLWLGLLPSVSGTVKSCVTETQTTAAASFQVALAVADNSKDVVAAMYPEAFKGITLEQLTADLTIYLYSSAALTEGDVIVHLEVEHVRPTFDDSFTPVY
notes: also called CCMV capsid; copies: 180
For the protein B1, the binding result in the data set “cryo-EM structure” was “binds”.

B2: E. coli GroES (natural protein, UniProt P0A6F9 1-97, looked up)
chain: MNIRPLHDRVIVKRKEVETKSAGGIVLTGSAAAKSTRGEVLAVGNGRILENGEVKPLDVKVGDIVIFNDGYGVKSEKIDNEEVLIMSESDILAIVEA
notes: GroES co-chaperonin of E. coli; purified as in Godek et al., 2024; source: T7 Express E. coli, Trc-promoted GroES/GroEL plasmid, purified (ion exchange, FFSP column at pH 4.6, Superdex 75); gift from the Steven Johnson laboratory
B2: in data set [1], the “stoichiometry N” value stood at 7.

The values above are taken from paper PMC12573921, “‘Mix-it-up’: accessible time-resolved cryo-EM on the millisecond timescale” (IUCrJ, 2025).
